Results reported in patent publication US20070004909A1.

Target: soluble CD16A (sCD16A) (UniProt P08637)
Assay: SPR (BIAcore 1000); receptor amine-coupled (~1000 RU), scFv as analyte; units not printed (koff/kon implies nM)

Chain of soluble CD16A (sCD16A) (P08637 17-208 limits assumed): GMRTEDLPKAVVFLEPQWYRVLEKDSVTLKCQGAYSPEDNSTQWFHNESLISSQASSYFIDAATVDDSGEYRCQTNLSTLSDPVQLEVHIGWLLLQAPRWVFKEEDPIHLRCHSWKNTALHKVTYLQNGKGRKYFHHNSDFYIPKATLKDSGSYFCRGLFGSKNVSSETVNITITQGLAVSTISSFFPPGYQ

**Q.** Which Kd does the source give for h3G8 scFv here?
**A.** Its Kd is 38.7 nM.
